This is an account of results in the domain aggregation screens of Martell et al. (2025).

The data set is described as follows: soluble fraction after stress (log2 fold change); higher = more stays soluble; pooled small domains, quantitative proteomics. Particulars: stress: 50 degC. In short, it runs like this:
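The stress applied to every library was 50°C. These custom libraries of small protein domains were pooled and measured at high throughput with quantitative proteomics as the read-out. Aggregation propensity is expressed as the base-two logarithm of the fold change in how much of each protein remains soluble. The higher the value, the more of that protein stays in solution.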

For “HMSVDDVALRLEFGPSDAEALAFVHRHGAILSETTDRDTGVVSVHVRLSEADAGRFNQRYGV”, the “soluble fraction (log2)” value was -0.183.

“HMGQAEEVRYSTFLDEVRNGRIEQVVLQGEHIIGTRKDKTVFSVFNPETDYTALIGTLSKSGVTIEGRP”: the “soluble fraction (log2)” value stood at 0.081.

Turning to “HMEGIAYDINTAPEHIDLKAEDMMATFNIGKTALWRWVKQKILPPPYEYRSQAAHWTIGQIRDWKTA”, the “soluble fraction (log2)” value was -0.0672.

With “HMNGKWKLRIIKELLHSNIRFGQILKNIPDISPKVLSQQLKEMEEDGIIERIVISEMPPNVEYVLTDMGE”, the “soluble fraction (log2)” value is -0.789.

In the case of “HMDVPTSSITEVKKSPMDVFAQARKAETGVYIFNREKIAGVMLTKEQYEALVEELNTLRDTL”, the “soluble fraction (log2)” value is -0.438.

Turning to “HMTRNEFMTALRKRLSHLPAEEQDAALKYYEEYFDEAESEEEAARQLGSPDAIADRILADYGAG”, the “soluble fraction (log2)” value amounted to 0.0132.

“HMNMRVLSEQPNKKSYQDGNLRLKVFGASFKKSDILNEALNQARVEETGLQIPKLLEVKQIDGQWTIVTE”: the “soluble fraction (log2)” value was -0.0363.

Take “HMSLETRRYQLPRTDAQTASGLLRSLSGLPGVREVNLSGEGVAYLKVDSKGFDEQNVIKLLAGE”: the “soluble fraction (log2)” value was 0.307.

Take “HMFAATGVVNAPSGLVLRETASKGGNPLATVPDKAQVEIVEEDGEWYKVKVNEQTGYLFAEFVNKTE”: the “soluble fraction (log2)” value was found to be 0.0336.

Take “HMDISAFDTEFIISKFGGIRPMAQKLGVPVSTVQGWKQRQTIPQNRMGDILEAAKNYNLELTP”: the “soluble fraction (log2)” value was found to be 0.0856.

“HMDFSERLARAMSLAGYTQGRLAKEVGMAQSSVNKLLNGANGSRKTVEIASVLGVRPEWLSTGAGEML”: the “soluble fraction (log2)” value is -0.371.

As for “HMGTRYVEFVIPGTGNHEVRIVSSNGSRQNVEVAGTYPGGARLRTKVDNGVRRVSFYVDNRLVEEKQ”, the “soluble fraction (log2)” value was determined as 0.0416.

Consider “HMTLSDIGHAVRTRRTELGLSQVQLARLSGLSRQTLVGLENGTLNDLGINRVAQLLAVLGLDAP”, for which the “soluble fraction (log2)” value was -0.827.

“HMANILKHKNKDGVITSYTIRVYHGYDEAGKRLRPYTMNYKPAPNMTARQIEKELNRQAVQFEEQIKNGYA”: the “soluble fraction (log2)” value was -0.699.

As for “HMKSLPQKLLAYLESQGLTRDEAGEFVKQGLKITSNDVDQIQLLLANTEVIDIKLQEFIAQK”, the “soluble fraction (log2)” value was 0.217.

Consider “HMNQEQQSAVMSALKATLPDLEAALEARQFKESKQLLKTAQNQFQQLDGRNRRGFQARIQLLAGQFRELS”, for which the “soluble fraction (log2)” value was -0.227.

Regarding “HMPTTTFENLPDAKKKTIIAALLKEFSQSPLSKAQVAPIVKESQIARGAFYKYFVDLTDAYTYLYRQ”, the “soluble fraction (log2)” value was -0.204.

As to “HMSNYIVELSSSEKIDDIDNNNNLINSFFSKSDSQWEYKLVFKNKNEMDVFVKKISTNNKIISYKTSS”, the “soluble fraction (log2)” value turned out to be 0.149.

“HMQQSQLDDIKSVVGGDEGYNKLREWTQANVPDETLKAFDKILDTQDPTMIKVAVEGFAAQMRQAE”: the “soluble fraction (log2)” value was -0.36.

Regarding “HMKVKIFNGMKLVTNSTGLTVDGKPAALDESNADAKTYSQGLYVFIVYQSGKIAVMQDGKFLGYA”, the “soluble fraction (log2)” value was -1.77.

For the sequence “HMTRPLVILEDVKFPSYNEIVSLTLPDGTRRGGQVLEVSGNKAIVQVFEGTSGIDVKDTHIELTKSS”, the “soluble fraction (log2)” value was 0.0245.

Regarding “HMVAVSQEEATKMALERVSGASAQDIRIQLEFDDGIQKYEGDIIYNGREYEFEIDANTGTFLEWSEERA”, the “soluble fraction (log2)” value was -0.489.

“HMFIKVEVPDLTGMTLTEVRKALEEKNLKMGDIRPAGQTSLVAKVINQSPQAKMVVDEYSEVSIQFEE”: the “soluble fraction (log2)” value was -0.217.

With “HMRQQSLHSLYRDHHSWLQNWLRRQLGNTWDAADLSQDTFIKVLASSQSVAEIREPRAYLLTVGKRL”, the “soluble fraction (log2)” value was -0.17.

Consider “HMYRLDVEISDEIKRDIDEETLSEIKGIIAEDPRPSYQNDETRIYRFTFAGREISFRVKDRTATVTEIL”, for which the “soluble fraction (log2)” value was -0.0821.

With “HMPDAENFRYRVPYTTEQNRLQYYEGDIRAENADKARDQVMQDAQKYFAQNTAFTPNYIDTDIISLD”, the “soluble fraction (log2)” value was found to be 0.034.

With “HMILKNVPSNLVNQRLDKVATVLFQTYSRTQIKKWILEGRLLVNGEISNPKDLVNENDEIEINPI”, the “soluble fraction (log2)” value was -1.6.

Take “HMITKAIELAEEAEKETVWLGVWEHNHPAQKFYQSLGFVKTDEHDFYMGNERHTDYTMTKQLK”: the “soluble fraction (log2)” value was -0.138.

For “HMSEFVIPLAKYNKALYTQVSLGMRFRMLFETEDSGVRRYMGTITGIGDLDPIRWKNSHWRNLQV”, the “soluble fraction (log2)” value came out at 0.111.

As to “HMSAPQKWDGSLQDFIRFKQEAKTLMDNIPNKRLALNAILETISDGKMRKRLAKYDGPESALKSLELEFGN”, the “soluble fraction (log2)” value is -0.0592.

Regarding “HMEKEYMKNVVGMEYRQARVLLGDMGLELAFQPVYETSDKYPTDVVVSTEPAADQPLTKGQTVILHIST”, the “soluble fraction (log2)” value came out at 0.288.

“HMLPLPRFASLDSSEANLRAGPGKDYPILWVYQRKGLPVEIIQEFDTWRRIRDRDGTVGWVQQNLL”: the “soluble fraction (log2)” value is -0.405.

Take “HMAVELPLETTLDIVRKYARNQEVDRRAERVEAVSAEALQTLAPRGTKLASEIVEQAKTQVLEELA”: the “soluble fraction (log2)” value came to 0.177.

In the case of “HMANHIAAIHVLKSKLQMSDSDYRVLITGLTQKASTKDMSDIERQRVRDHMQGLAERMGVVK”, the “soluble fraction (log2)” value is -0.18.

Consider “HMRAERVQITDPYIELHTGPGRGFPIFFVAPREQWISIELRHTDWFKVRAVGGQVGWVQRKQLEST”, for which the “soluble fraction (log2)” value was -0.455.

In the case of “HMENQFNDWSLTPSEKEVALFMLKGLSTQEIAAARNTKEKTVRQQASAVYAKSQLDGRYALAAWFFEDI”, the “soluble fraction (log2)” value was -0.567.

Turning to “HMVSRAFEEETVKRAESGNQEAALFALELAIREIEHSYEKSKIIDYFVSKVRLFLDNGVSLERALGIH”, the “soluble fraction (log2)” value came out at 0.0637.

Take “HMTMNYFIIENNQQVGPLTLEQLVARNITSDTLVWKEGMEDWQPAWKVDELHTVLDQIRANAEQ”: the “soluble fraction (log2)” value is -0.0599.

As for “HMYNNGYVNSDRVNFRKGASTNSDIYKVLDKNTSVTILDYEGDWSKVKINDTVGYVYTKYITAG”, the “soluble fraction (log2)” value was 0.134.

In the case of “HMLLLASTPAEQTIIQLLAEGWRDGDQLQQRSHLSAADFSTALTMLEVNGSIKPLGANHWALTH”, the “soluble fraction (log2)” value was -0.919.

Take “HMRWSDQKEIVTLSLDHVLVEKGRKTKEYSWREFRTFTAFEIKKSSKDQINLGFKSKGNTVIIGNF”: the “soluble fraction (log2)” value is -0.919.

Take “HMAIVNVEVPSLVGKTEQEARNLLTEAGLKVNVVNDEDESKNDGVVLRQSKDAGTEVQEGTTITITVNKVS”: the “soluble fraction (log2)” value was -0.218.

For “HMKNTYTVVSGDTLWGIASRKLGGGSNWTKIYDANAATIESVANRRRGGRGSDHGHWIYPGTVLTI”, the “soluble fraction (log2)” value is -0.0158.

As to “HMVLMPIDALRGSSSSSEMRIAAVKFSPSKGWYFSLQERSDEGSSYYEQKVASDGSVSERVKVR”, the “soluble fraction (log2)” value is -0.561.

As to “HMINVLTPKQIEATTIAVKYGYYENPRTVSMRELSEISGIARSTLQEHLSKAEAALMILAAKSQL”, the “soluble fraction (log2)” value was -0.338.

As to “HMILKQTHIVQELTGPIRLQEYGVGIFQQISTKSALKKALKKNQITVDGVVGSTATFIKGGEIIIYHVTE”, the “soluble fraction (log2)” value is -2.75.

Take “HMYEGNEFSSTGMFREDILAITAVHPMREDAVTELLARSNESEETLEMMIDEELLRRVAYGNHNYYMRRFR”: the “soluble fraction (log2)” value was -0.428.

For the sequence “HMAASTPGTVTGSVVNVRPDPSTNNDRIGVIYQGTKVEILAQVGEWYNIQFGPVSGWVHKDYISTGA”, the “soluble fraction (log2)” value was 0.00638.

For “HMNRNEFMERLEYLLSDIPQEEKADAIAYYRDYLEEAGDDAGKAIQDFGSPERIAAMIRSELAG”, the “soluble fraction (log2)” value is -0.0703.

On to “HMFTIGENIRDLRLERAITQEQLAEQLNVSAPAVSKWERGEAYPDITLVPKLAEILGVSTDKLFGVD”, for which the “soluble fraction (log2)” value is -0.0643.

Consider “HMRQSIHTALQLLTPREEEVLNLLVSGKSNKQVAEHFSLSSKTIERHRSSVMRKLDASSFAQLVRIAALR”, for which the “soluble fraction (log2)” value is -3.51.

For “HMIMGTITKRTNPSGAIVYRAQIRIKKAGYPDFSESRTFSKKAMAVEWLKLREAELEMHPELLFR”, the “soluble fraction (log2)” value was -1.34.

For the sequence “HMLDSDARRRGLIEYLSLNGYATMRQLAGEFDVSINTIQRDITYLARYYPLETAYGRYGGGVYFEQNWQ”, the “soluble fraction (log2)” value was -1.56.

For the sequence “HMEAMITEVKRINYGLISDISKSLDPFKSEGGHIIVDKRTNTFILTDLRANIEKMLWSIEIMD”, the “soluble fraction (log2)” value was -0.111.

Regarding “HMSQIANLLLSKNIKVNNQNIIYYETVLKYLPNNEKKEFFINAMKNNIYFTEEEIKNFGNIFN”, the “soluble fraction (log2)” value was -1.66.

Take “HMNYGDVIEGQIMHVDRDELLVDIGSKSEGIIPAREFSTLTDEERAALSVGDHVLVFVVQAENQEGQAV”: the “soluble fraction (log2)” value was 0.0712.

Regarding “HMVLIQNEDVKDISNYPLLSSVPVFDVFNNKMIIPTFNKDSFNPLIYNFNFNSKRRLIYRVDNTNYLIVIK”, the “soluble fraction (log2)” value was 0.0177.

For the sequence “HMGDLTVPDLSGLTVDQAKQRLKDMGLVLGKITTQEDSSKPDGVIISQSPSADGKINKGQLVDVVVNKLS”, the “soluble fraction (log2)” value amounted to 0.0463.

For the sequence “HMRNSVQREWIYDYIQRQDAHLSADEIYEGLLKEGKNISLATVYRNLSILVDEYKIASVMTDSKKQVYDK”, the “soluble fraction (log2)” value is -1.23.

Regarding “HMAHKRVDGTIVTPLTADTIVLRTGTHGEQPFEIRDTTRHKLESLQKGDMVILLIDTDNKVIDVAIPP”, the “soluble fraction (log2)” value is 0.423.

With “HMKQGKGIIVVDGKLMPEDFNVATLSLDEVESITVLKGEKAVALYGEKAKEREVLLITTQKG”, the “soluble fraction (log2)” value came to 0.423.

Consider “HMFDKVSVNNLAEAIGRLDGIYQDVLRLYYVHELPSKEIGKILNINHLTVNTRLKRAREKLFKMLKEE”, for which the “soluble fraction (log2)” value was -2.57.

Take “HMSELPLTQKVAIVMVALGEEASGEVMKHLSDYEIEEITQAIAGLKNISVELMDQILEEYEQHLIAG”: the “soluble fraction (log2)” value is -0.459.

On to “HMESDAIAAAIAALPARYREVLLLRYDNGFSYSEISKALDMTEAAVRKTVQRAKEALQRTLQIQEEDT”, for which the “soluble fraction (log2)” value is -0.471.

Consider “HMAGGVFELTGKVTADAKAGDLVYVKAATGAGTKPVVTTVKTGADVIIGWLKEPVSSASVDQKMQVVLA”, for which the “soluble fraction (log2)” value was 0.147.

In the case of “HMAAPLTDRETEVLTLLARGLINKQIAEELHIGLTTVITHRRNIMEKLRVRSLAELILRAVAAGYVDAGR”, the “soluble fraction (log2)” value is -1.77.

Take “HMSDDLIILGYSMLNNALKAFHIDPDSIKKKHWDKLAQDYHLKNKNQILTDIALGKRVNIMVAHQLTTIMD”: the “soluble fraction (log2)” value was -0.633.

“HMGPWTETAAKGDAVSKRMLITWLQENADAEFLAAQKLTGQATSVAKRVTKDQLVELYLSVTTAA”: the “soluble fraction (log2)” value is -0.53.

With “HMYEPPTEDEKRVLSLLATRESIVRSDVDRLLGVSQSTANRILKQMIEKYLISQEGTGKNTKYIK”, the “soluble fraction (log2)” value was -0.0391.
